The supplement of paper PMC9732359
± gives the uncertainty stated by the source.

Test: protein stability index of a GFP-peptide fusion (yeast GPS) (PSI 1-4); higher = more stable; sorted into four equal gates, so the index is relative within each strain
Procedure, shortened: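 Yeast carrying a pooled library were grown to mid-log phase in leucine-free medium. Each library plasmid expresses Cherry and has a tiled 17-residue yeast protein peptide fused downstream of GFP. Cells were sorted into four equal gates by GFP/Cherry ratio, and plasmids from each gate were PCR-amplified, Illumina-sequenced and assigned to strains by barcode. Summing, across gates, the read frequency times the gate number gave each peptide's protein stability index.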

In the case of NQIWNIALNLASKKFGK [SSN2], the protein stability index (doa10∆) is reported as 2.7 ± 0.13, the protein stability index (pdr5∆) is reported as 2.88 ± 0.052 and the protein stability index (san1∆) is reported as 3.06 ± 0.067. For the same sequence, the protein stability index (ubr1∆) was 3.08 ± 0.056.

NQLTESASHFEQYTKKI [YJL041W/NSP1] gave a protein stability index (doa10∆) of 2.28 ± 0.086, a protein stability index (pdr5∆) of 2.45 ± 0.065 and a protein stability index (san1∆) of 2.76 ± 0.082. The protein stability index (ubr1∆) was 2.5 ± 0.095.

Sequence NQNSSTGAGAFGTGQST [YJL041W/NSP1] has a protein stability index (doa10∆) of 2.33 ± 0.058, a protein stability index (pdr5∆) of 1.99 ± 0.062 and a protein stability index (san1∆) of 2.31 ± 0.11. The protein stability index (ubr1∆) was 2.6 ± 0.048.

NRDPVKHAEFDLSLLGY [SIR2] gave a protein stability index (pdr5∆) of 2.75 ± 0.21.

With NRPNTLDPALLRPGRID [RPT1] the protein stability index (doa10∆) was 2.72 ± 0.14, the protein stability index (pdr5∆) was 3.01 ± 0.14 and the protein stability index (san1∆) was 3.16 ± 0.064. It also gave a protein stability index (ubr1∆) of 2.61 ± 0.13.

With NRQQKKRRFDPSSSDSN [RRP6] the protein stability index (doa10∆) was 2.77 ± 0.056, the protein stability index (pdr5∆) was 2.69 ± 0.078 and the protein stability index (san1∆) was 3.05 ± 0.053. It also gave a protein stability index (ubr1∆) of 3.19 ± 0.067.

Work on NRQTLMFTATMTPVIEK [PRP28] yielded a protein stability index (doa10∆) of 2.56 ± 0.061, a protein stability index (pdr5∆) of 2.62 ± 0.052 and a protein stability index (san1∆) of 2.42 ± 0.052. It also gave a protein stability index (ubr1∆) of 2.44 ± 0.043.

For NRQVMHKMGVERSSKRL [SIR3], the protein stability index (doa10∆) was 3.23 ± 0.17, the protein stability index (pdr5∆) was 3.49 ± 0.14 and the protein stability index (san1∆) was 3.46 ± 0.14. The protein stability index (ubr1∆) was 3.34 ± 0.19.

NRSEQNGQEQQGPVKNT [RGR1] showed a protein stability index (doa10∆) of 3.26 ± 0.16, a protein stability index (pdr5∆) of 3.39 ± 0.14 and a protein stability index (san1∆) of 3.11 ± 0.11. For the same sequence, the protein stability index (ubr1∆) was 3.55 ± 0.22.

NSCFSDGSQQNLQQDKT [REC8] showed a protein stability index (doa10∆) of 2.77 ± 0.09, a protein stability index (pdr5∆) of 2.76 ± 0.13 and a protein stability index (san1∆) of 2.18 ± 0.2. For the same sequence, the protein stability index (ubr1∆) was 2.88 ± 0.059.

NSDDIIDVDMDASPAPS [SRB5] showed a protein stability index (doa10∆) of 2.71 ± 0.051, a protein stability index (pdr5∆) of 2.89 ± 0.061 and a protein stability index (san1∆) of 2.78 ± 0.056. It also gave a protein stability index (ubr1∆) of 3 ± 0.072.

NSDDILSLHENYPQDEI [POP1] showed a protein stability index (doa10∆) of 2.94 ± 0.06, a protein stability index (pdr5∆) of 3.12 ± 0.073 and a protein stability index (san1∆) of 2.82 ± 0.084. The protein stability index (ubr1∆) was 2.92 ± 0.05.

With NSDKPRDVYVFDKVEVQ [DIS3] the protein stability index (doa10∆) was 2.96 ± 0.058, the protein stability index (pdr5∆) was 2.93 ± 0.066 and the protein stability index (san1∆) was 3.1 ± 0.056. For the same sequence, the protein stability index (ubr1∆) was 3 ± 0.059.

For NSESTTQGGNVNLDNTA [RPT5], the protein stability index (doa10∆) was 3.53 ± 0.11, the protein stability index (pdr5∆) was 3.41 ± 0.12 and the protein stability index (san1∆) was 3.27 ± 0.09. It also gave a protein stability index (ubr1∆) of 3.11 ± 0.087.

For NSFYYTSLLYLSTLEPS [RPN9], the protein stability index (doa10∆) was 1.82 ± 0.05, the protein stability index (pdr5∆) was 1.56 ± 0.046 and the protein stability index (san1∆) was 1.47 ± 0.1. The protein stability index (ubr1∆) was 1.77 ± 0.041.

In the case of NSGKQQYYRGLPLYEKN [SWP82], the protein stability index (doa10∆) is reported as 2.56 ± 0.089, the protein stability index (pdr5∆) is reported as 2.5 ± 0.06 and the protein stability index (san1∆) is reported as 2.9 ± 0.075. It also gave a protein stability index (ubr1∆) of 3.01 ± 0.043.

NSIDINYKGLPKKYKEN [SMC1] gave a protein stability index (doa10∆) of 2.91 ± 0.068, a protein stability index (pdr5∆) of 3.16 ± 0.08 and a protein stability index (san1∆) of 3.21 ± 0.07. The protein stability index (ubr1∆) was 3.36 ± 0.059.

Sequence NSIKNVPPILIILPLDN [SSN2] has a protein stability index (doa10∆) of 2.01 ± 0.21, a protein stability index (pdr5∆) of 1.61 ± 0.11 and a protein stability index (ubr1∆) of 1.82 ± 0.068.

Work on NSINNNNIKNGTNNISQ [YDL088C/ASM4] yielded a protein stability index (doa10∆) of 2.79 ± 0.044, a protein stability index (pdr5∆) of 2.75 ± 0.046 and a protein stability index (san1∆) of 2.74 ± 0.046. It also gave a protein stability index (ubr1∆) of 2.98 ± 0.035.

NSITKDNIDYAPMRLAT [YJL039C/NUP192] gave a protein stability index (doa10∆) of 2.58 ± 0.048, a protein stability index (pdr5∆) of 2.74 ± 0.038 and a protein stability index (san1∆) of 2.71 ± 0.05. It also gave a protein stability index (ubr1∆) of 2.57 ± 0.035.

With NSLKETLQDFHLIFSNA [SNF2] the protein stability index (doa10∆) was 2.85 ± 0.072, the protein stability index (pdr5∆) was 2.82 ± 0.068 and the protein stability index (san1∆) was 2.27 ± 0.13. It also gave a protein stability index (ubr1∆) of 2.44 ± 0.092.

With NSNINTLTASPDGTLIA [ASC1] the protein stability index (doa10∆) was 2.88 ± 0.078, the protein stability index (pdr5∆) was 2.68 ± 0.061 and the protein stability index (san1∆) was 2.88 ± 0.061. It also gave a protein stability index (ubr1∆) of 2.82 ± 0.046.

For NSNTTNQNSSTGAGAFG [YJL041W/NSP1], the protein stability index (doa10∆) was 3.04 ± 0.053, the protein stability index (pdr5∆) was 3.07 ± 0.074 and the protein stability index (san1∆) was 3.03 ± 0.051. The protein stability index (ubr1∆) was 2.96 ± 0.05.

NSRGKFDDACNQIWNIA [SSN2] showed a protein stability index (doa10∆) of 3.04 ± 0.15, a protein stability index (pdr5∆) of 3.01 ± 0.1 and a protein stability index (san1∆) of 2.87 ± 0.12. For the same sequence, the protein stability index (ubr1∆) was 3.09 ± 0.14.

In the case of NSSEEDKKKGQNVTSET [ITC1], the protein stability index (doa10∆) is reported as 3.5 ± 0.14, the protein stability index (pdr5∆) is reported as 3.31 ± 0.17 and the protein stability index (san1∆) is reported as 3.06 ± 0.17. The protein stability index (ubr1∆) was 3.29 ± 0.11.

For NSSTSPAPSIPSTGFKF [YLR335W/NUP2], the protein stability index (doa10∆) was 2.38 ± 0.04, the protein stability index (pdr5∆) was 2.5 ± 0.036 and the protein stability index (san1∆) was 2.48 ± 0.043. The protein stability index (ubr1∆) was 2.21 ± 0.028.

Work on NSTATMQHNPLAGKRGP [PGD1] yielded a protein stability index (doa10∆) of 3.05 ± 0.047, a protein stability index (pdr5∆) of 3.09 ± 0.044 and a protein stability index (san1∆) of 3 ± 0.042. The protein stability index (ubr1∆) was 3.03 ± 0.033.

For NSTSKNTLLQQQNYSKV [SWI1], the protein stability index (doa10∆) was 2.33 ± 0.067, the protein stability index (pdr5∆) was 2.86 ± 0.12 and the protein stability index (san1∆) was 2.08 ± 0.078. For the same sequence, the protein stability index (ubr1∆) was 2.68 ± 0.06.

In the case of NTEITQKSSKENIENEE [ECM29], the protein stability index (doa10∆) is reported as 3.05 ± 0.082, the protein stability index (pdr5∆) is reported as 3.28 ± 0.087 and the protein stability index (san1∆) is reported as 2.76 ± 0.078. For the same sequence, the protein stability index (ubr1∆) was 2.94 ± 0.09.

NTFQKTVEPVYQMHIKT [FAS1] showed a protein stability index (doa10∆) of 1.68 ± 0.038, a protein stability index (pdr5∆) of 1.78 ± 0.046 and a protein stability index (san1∆) of 1.58 ± 0.062. It also gave a protein stability index (ubr1∆) of 1.5 ± 0.059.

For NTHNKSTKRVTKHPSLK [POP7], the protein stability index (doa10∆) was 2.6 ± 0.07, the protein stability index (pdr5∆) was 2.78 ± 0.062 and the protein stability index (san1∆) was 2.67 ± 0.044. The protein stability index (ubr1∆) was 2.72 ± 0.046.

NTILNSSSDFRLHYYPK [BRR2] gave a protein stability index (doa10∆) of 2.75 ± 0.054, a protein stability index (pdr5∆) of 3.17 ± 0.067 and a protein stability index (san1∆) of 2.81 ± 0.048. For the same sequence, the protein stability index (ubr1∆) was 3.11 ± 0.042.

In the case of NTKVPVDIVNQWFLQYQ [YML103C/NUP188], the protein stability index (doa10∆) is reported as 1.78 ± 0.044, the protein stability index (pdr5∆) is reported as 2.15 ± 0.038 and the protein stability index (san1∆) is reported as 1.85 ± 0.058. For the same sequence, the protein stability index (ubr1∆) was 2.18 ± 0.034.

NTNPSPLKTQTKNGTPN [GAL11] showed a protein stability index (doa10∆) of 2.91 ± 0.059, a protein stability index (pdr5∆) of 2.9 ± 0.05 and a protein stability index (san1∆) of 2.58 ± 0.049. It also gave a protein stability index (ubr1∆) of 2.94 ± 0.04.

Work on NTPLSLPTRGTLESLEN [COR1] yielded a protein stability index (doa10∆) of 3.21 ± 0.12, a protein stability index (pdr5∆) of 2.37 ± 0.08 and a protein stability index (san1∆) of 2.6 ± 0.27. For the same sequence, the protein stability index (ubr1∆) was 2.41 ± 0.065.

For NTRKNMSISLESSKALA [DIS3], the protein stability index (doa10∆) was 1.96 ± 0.082, the protein stability index (pdr5∆) was 2.24 ± 0.1 and the protein stability index (san1∆) was 1.96 ± 0.13. The protein stability index (ubr1∆) was 2.08 ± 0.078.

Sequence NTTKTADTKAPTFTFGS [YLR335W/NUP2] has a protein stability index (doa10∆) of 3.36 ± 0.08, a protein stability index (pdr5∆) of 3.33 ± 0.063 and a protein stability index (san1∆) of 3.21 ± 0.061. It also gave a protein stability index (ubr1∆) of 3.38 ± 0.057.

Sequence NTVMLQGIFKNSSNYFG [AAR2] has a protein stability index (doa10∆) of 2.21 ± 0.15, a protein stability index (pdr5∆) of 1.29 ± 0.094 and a protein stability index (san1∆) of 2.15 ± 0.14. The protein stability index (ubr1∆) was 1.46 ± 0.2.

For NTVPQVTNFNSTNEDQN [SRB5], the protein stability index (doa10∆) was 2.83 ± 0.09, the protein stability index (pdr5∆) was 3.21 ± 0.056 and the protein stability index (san1∆) was 3.02 ± 0.051. The protein stability index (ubr1∆) was 2.9 ± 0.051.
